{"source": "the DeepSol protein solubility set"}
{"experiment": "soluble on expression in E. coli; label from the status in PepcDB or PDB records"}
{"sequence": "MVEARSRHEFVALQLRQRIMQRQYAVGESLPSESMLCAEFEVSRGPVRQALATLKNEGLIQLSQGKPAVVRSHDITQTLDTFTPFSQWARRTGRVAGSRTLEISRRRVSEPAASALGSAPDDFVVEVLRVRLLDGEPTMIERSTFTDRVGSLLFDFDIDTGSITDYLTSRGVRFESMEHVLDAVAATGVDAENLRIDPGSPLLRERRTSRDQNGDTFEYADDRYRPDLVAFSIVNARTIDPRLPSDDGNGA", "soluble on expression in E. coli": "not soluble"}
{"sequence": "MVEYVNQAHEDITGIARDKSIGTNLRDLTFFRQHNALAEQTLAKIFRGDQAKGEVQFSRTDGSRYWLKYIVSQFITDRGNHYALVSGEENSDEHNYKAELEHHHHHH", "soluble on expression in E. coli": "not soluble"}
{"sequence": "MVGCLVVLLGAARKPARIFNLTPASASRYDSIHLCSLRTSLSCH", "soluble on expression in E. coli": "not soluble"}
{"sequence": "MVGGVEELSIEQLASSISTYKEQLEQNFVCGLEFRIGEEKLNVRQLLSEDPRNSEYADMEKELKEVIALTEEVLATAKQNEISLSDAGVSAEATPGSPDLEGAWEKTGLRNDPIHEGKFPVGTKVQAVFSDDGEWYDATIEAHTANGYFVAYDEWGNKEEVDPDNVRPIEQNAIVEAERLAQATKNALKRKIEKAASSDYQTKTLPAKLKIDPNDPEDVKIAKRKKIHAFKSKARFEQLEVVQNKKQNDWQQFQTTKAKTKKVGFFTGRKKESIFKSPEDPFGKVGVTGSGKGLTDFQKREKHLHLKSGNAEGTDE", "soluble on expression in E. coli": "soluble"}
{"sequence": "MVGIRRNKGHGEATIFTLRELADATNNFSTECLLGRGGFGSVYKAFLNDRQVVAVKQLDLNGLQGNREFLVEVLMLSLLHHPNLVKLFGYCVDGDQRLLIYEYMPLGSLEDRLHDLRPGQEPLDWTTRMKIAADAAAGLEYLHDEAIPAVIYRDIKPSNILLGEGYNAKLSDFGLAKLGPVGDKTHVTTRVMGTHGYCAPEYLSTGKLTIKSDIYSFGVVFLELITGRRALDSNRPPDEQDLVAWARPLFKDQRKFPKMADPSLHGHFPKRGLFQALAIAAMCLQEKAKNRPSIREVAVALSYLASQTHESQNTAARHTLPGPSVPRVLDNQINQDTSLPSQHGVHMPPLAGTDHMVQEVKENCRSSSHRPGRGRVTPNGADRERALAEANVWVEAWRRQEKTSKMR", "soluble on expression in E. coli": "not soluble"}
{"sequence": "MVHDSALPFDALPMPPQGREGFEECPYLDSQWVADTNGQRMTGQGVDTRFDTPACVFWSYPEAPQATVMVRHMPSEEEAIRVVDWAAPIDTTEPAEEPDGWSGGRAGHEEGAVYAVQKGPVAVVVWSNQQQSLKAELMAKEAIARLGL", "soluble on expression in E. coli": "soluble"}
{"sequence": "MVHVKDVLADQLLANANDPSWYMPFSDAVKDLSEREAFWKPNEECNSIAEIVQHLLYWNSTWQTRYKESHVNAVPAIGDNNKSFMLSDNQTFDELREKLLEKLLQWQTLINEEKVESDVVGFPVSAKWWEVLANVTTHNAYHIGQIIYIRKLQQSFDNK", "soluble on expression in E. coli": "not soluble"}
{"sequence": "MVINIRRSRPDEGDKLTAIWCRSVDATHDFLTKAYRKELEEMVRAFLPEAPLWVAVSTEDQPIAFMLLTGDHMDALFVDPDVRGCGVGKLLIEHALSLTPKLTTNVNEQNEQAVGFYQKMGFRVTGRSETDDLGQPYPLLNLMYEQQAEADYD", "soluble on expression in E. coli": "not soluble"}
{"sequence": "MVIRRCEKMEEETWKLKIGMCIQAKDFYSKRTDCSVHRPDVGGGLITEGNGYRVVVHDQCEEPNPFIIATTKQTHFGVTHSYIEFSNSNTGAPENIPDCSKHILISVYCDQEASGLDFHTLKYVESNYLHITVKYDTSCINHLGVNYSFMNECERKLTSIYETDTLTCGAKDIQTRDKYLKTCTNTKFDRSVYKTHMQKSKILHVKTELE", "soluble on expression in E. coli": "not soluble"}
{"sequence": "MVISLKNRNFLKLLDYTPAEIQHLIDLAIELKAAKKAGCEKQTLIGKNIALIFEKTSTRTRCAFEVAAFDQGAQVTYLGPSGSQIGHKESMKDTARVLGRMYDGIEYRGFGQHIVEELGEYAGVPVWNGLTDEFHPTQILADLMTMLEHAPGKTLPELSFAYLGDARNNMGNSLMVGAAKMGMDIRLIAPKSFWPDAALVAQCREIASVTGARITLTESVEDGVHGVDFLYTDVWVSMGEPKEAWAERVSLMTPYQVNQQVVNATGNPDVKFMHCLPAFHNEHTKVGREIEMAYGLKGLEVTEEVFESAGSIVFDEAENRMHTIKAVMVATLGD", "soluble on expression in E. coli": "not soluble"}
{"sequence": "MVITLSRLYVHPVKSMRGLQLSHAQVSRSGLAFDRVFMITEPDGMFITARQYPKMVMFTPALMADGLYLTAPDGESASIRFNDFLANPAPTEVWGNHFTALIAPEAINSWLSGYFQRDVQLRWVGTELTRRVKPLPEVPLSFADGFPYLLINEASFKDLQQRCPASIKLEQFRPNLVITGTTAFAEDCWQVIRIGDITFDLVKPCSRCVLTTVSVERGQKHPAGEPLRTLQTFRTAENGDVDFGQNMVARNSGIIRVGDEVEVLITKPPRPYGAGAVVESLSAPQDQSKTVSIEYNGIRFNGNNQQILLEQLEQQNIRIPYSCRAGICGSCRVTLLTGDVAALKKSAVGNDGTILCCSCIPKGDISLSGK", "soluble on expression in E. coli": "not soluble"}
{"sequence": "MVKAVIFTDFDGTVTLEDSNDYLTDTLGFGKEKRLKVFEGVLDDTKSFRQGFMEMLESIHTPFPECIKILEKKIRLDPGFKDTFEWAQENDVPVIVVSSGMKPIIKVLLTRLVGQESIHKIDIVSNEVEIDAHDQWKIIYKDESPFGHDKSRSIDAYKKKFESTLKAGEQRPVYFYCGDGVSDLSAAKECDLLFAKRGKDLVTYCKKQNVPFHEFDTFKDILASMKQVLAGEKTVAELMEN", "soluble on expression in E. coli": "soluble"}
{"sequence": "MVKEPGGKHVLCVGAAVLDTLFRVADMPKGEGKVLPYEVLQIAEGMASSAAYAVHRMGGRASLWGAVGDDETGTRILRDLSESGIDTSGMTVAPGARSALSTIIIDNRGERLIVPFYDHRLHEKKRACTPEDIALFDAVLVDVRWPELALDVLTVARALGKPAILDGDVAPVETLEGLAPAATHIVFSEPAATRLTGLETVKDMLPVLHARYPQTFIAVTAGPAGCWWTEADDPTVHFQTTMQVEAVDTLAAGDIFHGTFALAMAEGMQSRAAVRLSSVAAALKCTVFGGRIGAPTREETEEAMRQWLERESEPALRAS", "soluble on expression in E. coli": "soluble"}
{"sequence": "MVKIGVCGPVGSGKTALIEALTRHMSKDYDMAVITNDIYTKEDAEFMCKNSVMPRERIIGVETGGCPHTAIREDASMNLEAVEEMHGRFPNLELLLIESGGDNLSATFNPELADFTIFVIDVAEGDKIPRKGGPGITRSDLLVINKIDLAPYVGADLKVMERDSKKMRGEKPFIFTNIRAKEGLDDVIAWIKRNALLEDLEHHHHHH", "soluble on expression in E. coli": "soluble"}
{"sequence": "MVKQRSELLFLYDVQWANPNGDPVDGNKPRIDEETGKNIVTDVRLKRTIRDYLYEYRHQEIFVREIAQDDDYIQDAKARAEDFLVKDGEKLDKSKLTLSEMKKIINDEVLRQCIDVRLFGVTLPIEKSSKEKSSITHTGPVQFKMGQSLHRVKLEYIKGTGAFASGGQMTQKTFREEYVLPYSLIAFYGVINETAARFTRLTEEDVELLVDAMWEGTKNLISRSKVGHVPRLLLRVVYQEPHFHIGELDKYISLHTEKAEEEIRDAQDYVLDVSRLIEVLAREKEKIANIELRQDERLVCNENLVDRLRQEGIVVDIR", "soluble on expression in E. coli": "not soluble"}
{"sequence": "MVKVGIIGGSGLEDPNILLDPVTVAVDTPYGKPSDDVVEGTINGVECVLLARHGRKHDIMPGNVNFRANLWALYSRGVDVIIASTACGSLQENVEPGHLLFPDSVFDRTTGRQSTFFDGSYDQAPGVCHIQAHPTYNEKLRQVLISTAERCQLVHHRTGFGVCIEGPRFSTKAESMVFKSWGASLVNMTMMPECILAKELGIPYATTALVTDYDCWKEEDHVTASSVMKVFAANVEKAKTLFVEAVGEIGKIDWSAEILKLKTEARESVMISPDVVIPFLTTDNQKKF", "soluble on expression in E. coli": "not soluble"}
{"sequence": "MVKVIFFDLDDTLVDTSKLAEIARKNAIENMIRHGLPVDFETAYSELIELIKEYGSNFPYHFDYLLRRLDLPYNPKWISAGVIAYHNTKFAYLREVPGARKVLIRLKELGYELGIITDGNPVKQWEKILRLELDDFFEHVIISDFEGVKKPHPKIFKKALKAFNVKPEEALMVGDRLYSDIYGAKRVGMKTVWFRYGKHSERELEYRKYADYEIDNLESLLEVLARESSSNKKVHPPRQQI", "soluble on expression in E. coli": "soluble"}
{"sequence": "MVLAGGVGKRLLPLTRERPKPYLPLAGKPLYMYAVEQVAMVRSLLDRAVMVTPPGHPTPPGSLPSWLDTVEQQGEGVEAGLATALKRLGGGEEVVVSFVGYLARPNTLVRHVLDFYSVTRYKLVLALAPVTRGSESFGFVDADPSTGRVLGFSGSREEWMAGRGRVFAGVLAGDPEALEVLAGEGFVEGINTLARRGLVGSVVWPGEWLEVGYPCDLLEAPRLVVEAWAAVISAKARVARSSVIQGGVVIEEDAEVGEGAVVEGPAYLGRGAVVGRNSVVGPGVVLEEGAVVGDLVSIERSVMLERAEASGPSRLEGVVIGDGAYIAPLAAATNREGCTVVAPKTRLGPRATLEPGKTYTLEHHHHHH", "soluble on expression in E. coli": "not soluble"}
{"sequence": "MVLDQGDVISRINEGAISSSLEDLAKETGKEVRFVTIHRLDYGETPESFAQALFEKWFPSKEAQANQILLVLDTVTNGTAIITGDEVKPLLTDTIANSVAEETLAAPLRDGNKYNQAFLDASDRLVAVLSGQPDPGPPQIVDKLEHHHHHH", "soluble on expression in E. coli": "soluble"}
{"sequence": "MVLRAKLLSWQEGVGSKTFEFDVDVEPRSYVISKVSQLSPIIASEDLTVCEGEVAVVGTRVIEIPENTVVRPVAAISHANGFVADVIECGAPGMVEDEKCINHAVFIPTRSGDVKEGDLLGMLRINFVRTGLLSRVILEHHHHHH", "soluble on expression in E. coli": "not soluble"}
{"sequence": "MVLRTGRLSDFQRDMMNDHWAKFGLDYQKSPFDFVEIFGNANPVVLEIGFGMGRSLVEMAAQNPDRNYIGIEVHTPGVGACIAYAVEKQVDNLRVICHDATEILRDAVADGSLAGLQLYFPDPWQKSKHHKRRIVQTEFVMRLLTKLTAGGFIHFATDWQNYAEHMLAVLRQFSPALVNTSPTGDFIDRPAFRPLTKFEARGQRLGHAVWDLYFVKKLEHHHHHH", "soluble on expression in E. coli": "not soluble"}
{"sequence": "MVLSQKLHEAFKGTVERITGPRTISAFKEKGVLSVSEFVLAGDNLVSKCPTWSWESGDASKRKPYLPSDKQFLITRNVPCLRRAASVAEDYEAAGGEVLVDDEDNDGWLATHGKPKGKEEDNLPSMDALDINEKNTIQSIPTYFGGEEDDDIPDMEEFDEADNVVENDPATLQSTYLVAHEPDDDNILRTRTYDLSITYDKYYQTPRVWLTGYDESRMLLQPELVMEDVSQDHARKTVTIEDHPHLPGKHASVHPCRHGAVMKKIIDVLMSRGVEPEVDKYLFLFLKFMASVIPTIEYDYTMDFDLGSSST", "soluble on expression in E. coli": "not soluble"}
{"sequence": "MVNIDKIIGINNLPLANGLGEYAKRMEAVLGKNILSLVMDKRYKDMDYAGRKIYGYYPPITNGYLLNVYLSRSILKKYYKGKFPHLLSPFFYLGSEYESKSIITIHDTYYKWEKNKMQRLSKKIVRKYRSFKNIISISEQTKNDLIADGYDADNISVIYNYIDPIFRKLESINKDEKTVLTVGDGIHKNNILVNKIVNGRYYHIHIGKEVRADENYSGISTEELVKLYNRASVLIRLSDYEGFGYPPLEALFCGTPAVVSDIAVFRELLGDSAVYVKKDEVSILDGIEYAIQNRKEMLNRFESKIKSRYTKERFISNMIKYYKDL", "soluble on expression in E. coli": "soluble"}
